The values below come from US20250027068.

Where a chain is given by its changes, count along the chain named.

To fix the notation:
B1: PRT-655 (protein)
chain: MQITSVWTKGVTPLTPEQFRYNNEDVIHAPYLAHQGWYDITKAFDGKDNLLCGAATAGNMLHWWFDQNKTEIEAYLSKHPEKQKIIFNNQELFDLKAAIDTKDSQTNSQLFNYFRDKAFPNLSARQLGVMPDLVLDMFINGYYLNVFKTQSTDVNRPYQDKDKRGGIFDAVFTRGDQTTLLTARHDLKNKGLNDISTIIKQELTEGRALALSHKTGNGGSSHVINLWGADFNAEGNLEAIYVTDSDANASIGMKKYFVGINAHGHVAISAKKIEGEDVGAQVLGLFTLSSGKDIWQKLSLEHHHHHH
B2: PRT-654 (protein)
chain: B1 chain with K214T, G218V, G219S, S220Y, D277N
B3: PRT-612 (protein)
chain: MQITSVWTKGVTPLTPEQFRYNNEDVIHAPYLAHQGWYDITKAFDGKDNLLCGAATAGNMLHWWFDQNKTEIEAYLSKHPEKQKIIFNNQELFDLRAAINSKDSQTNSQLFNYFRDKAFPNLSARQLGVMPDLVLDMFINGYYLNVFKTQSTDVNRPYQDKDKRGGIFDAVFTRGDQTTLLTARHDLKNKGLNDISTIIKQELTEGRALALSHTYANVSISHVINLWGADFNAEGNLEAIYVTDSDANASIGMKKYFVGINAHGHVAISAKKIEGENIGAQVLGLFTLSSGKDIWQKLSLEHHHHHH
B4: PRT-606 (protein)
chain: B3 chain with H79Y, E81D, R96K, N100D, S101T, D293E
B5: PRT-639 (protein)
chain: B3 chain with A43T, D45N, N49D, R96K, N100D, S101T, N248D
B6: PRT-629 (protein)
chain: B3 chain with T70E, S77K, H79Y, R96K, N100D, S101T, D293E
B7: PRT-607 (protein)
chain: B3 chain with K9Y, T12K, A33E, R96K, N100D, S101T
B8: PRT-671 (protein)
chain: MQITTVWTKGVTPPTPEQFRNNNEDVFHAPYLPHQGWYDITKAFDGKDNLLCGAATAGNMLHWWFDQNKEEIEAYLKKYPEKQKIIFNNQELFDLRKAINTKDSQTNSQLFNYFRDKAFPNLSARQLGVMPDHVLDMFINGYYLNVFKTQSTDVNRPYQTRDKRGGIFDAVFNRGDQTTLLTERHDLYNKGLDDISTLIKQELSSGKALGLSHTYANVSISHVINLWGADFNAEGNLEAIYVTDSDDDASIGMKKYYVGKNASGHVRISAKKIEGENIGAQVLGLFTLSTGKDIWQKLSLEHHHHHH
B9: PRT-668 (protein)
chain: MQITSVWTKGVTPLTPEQFRYNNYDVFHAPYLAGQGWYDITKAFDGKDNLLCGAATAGNMLHWWFDQNKTEIEAYLSKYPEKQKIIFNNQELFDLRKAINTKDSQTNSELFNYFRDKAFPNLSARQLGVMPDLVLDMFINGYYLNVFKTQSTDVNRPYQDKDKRGGIFDAVFNRGDQTKLLTARHDLKNKGLNDISTLIKQELSSGRALALSHTTANVSISHVINLWGADFNAEGNLEAIYVTDSDDDSNIGMKKYKVGINASGHVAISAKKIEGENIGAQVLGLFTLSSGKDIWQKLSLEHHHHHH
B10: PRT-532 (protein)
chain: MANQEIRYSEETPKTITSIWTKGVTPPTDFIKNEDVLHAPYIANQGWYDITKTFNGKDDLLCGAATAGNMLHWWFDQNKEEIENYLKKHPEKQKINFNGEQMFDVKEAIDTKDSQTDSKLFEYFKDKAFPYLSTKHLGVMPDLVLDMFINGYYLSLGKHGPTPVKRGTKDPRGGIFDAVFTRGDQSKLLTARHDFKEKTLNEISDLIKQELTEGKALALSHTYANVRINHVINLWGADFNSEGNLEAIYVTDSDSNASIGMKKYYVGVNAAGKVAISAKEIEGDNIGAQVLGLFTLSTGQDIWNQTNLEHHHHHH
B11: PRT-565 (protein)
chain: MANQEIRYSEATPSHITSVWTKGVTPPTQFIQNEDVLHAPYIANQGWYDITKTFNGKDDLLCGAATAGNMLHWWFDQNKEQIENYLKKHPEKQKINFNGEQMFDVKEAIDTKDSQTDSALFSYFKDKAFPYLSTKHLGVFPDHVIDMFINGYRLSLTNHGPTPVKRQTKDPRGGIFDAVFTRGDQSKLLTSRHDFKEKTLNEISQLIKQELTEGKALGLSHTYANVRINHVINLWGADFNAEGNLEAIYVTDSDSNASIGMKKYYVGVNSAGKVAISAKEIEGDNIGAQVLGLFTLSTGQDIWQQTNLEHHHHHH
B12: PRT-65 (protein)
chain: MANQEIRYSEVTPYHVTSVWTKGVTPPANFTQGEDVFHAPYVANQGWYDITKTFNGKDDLLCGAATAGNMLHWWFDQNKDQIKRYLEEHPEKQKINFNGEQMFDVKEAIDTKNHQLDSKLFEYFKEKAFPYLSTKHLGVFPDLVIDMFINGYRLSLTNHGPTPVKEGSKDPRGGIFDAVFTRGDQSKLLTSRHDFKEKNLKEISDLIKKELTEGKALGLSHTYANVRINHVINLWGADFDSNGNLKAIYVTDSDSNASIGMKKYFVGVNSAGKVAISAKEIKEDNIGAQVLGLFTLSTGQDSWNQTN
B13: PRT-622 (protein)
chain: MQITSVWTKGVTPLTPEQFRYNNEDVIHAPYLAHQGWYDITKAFDGKDNLLCGAATAGNMLHWWFDQNKTEIEAYLSKHPEKQKIIFNNQELFDLKAAIDTKDSQTNSQLFNYFRDKAFPNLSARQLGVMPDLVLDMFINGYYLNVFKTQSTDVNRPYQDKDKRGGIFDAVFTRGDQTTLLTARHDLKNKTLKEISDIIKQELQSGRALALSHTYANVSISHVINLWGADFNSEGNLIAIYVTDSDANASIGMKKYFVGINAHGHVAISAKKIEGENIGAQVLGLFTLSSGKDIWQKLSLEHHHHHH
B14: PRT-666 (protein)
chain: MQITSVWTKGVTPPTPEQFRNNNEDVFHAPYLANQGWYDITKTFNGKDDLLCGAATAGNMLHWWFDQNKTEIEAYLKKHPEKQKIIFNNQELFDLKKAIDTKDSQTNSQLFNYFRDKAFPNLSARQLGVMPDLVLDMFINGYYLNVTKTQSTDVNRPYQDKDKRGGIFDAVFTRGDQTTLLTSRHDLKNKGLNEISDLIKQELTEGKALALSHTYANVSINHVINLWGADFNAEGNLEAIYVTDSDSNASIGMKKYFVGVNASGKVAISAKKIEGENIGAQVLGLFTLSSGKDIWQKLSLEHHHHHH

The target of the data set is pooled human IgG.
Turning to B1, the Enzyme Activity Endpoint Assay (purified): Fab′2 worked out at 471 ng/µL, the Enzyme Activity Endpoint Assay (purified): Fc was 0 ng/µL, the Enzyme Activity Endpoint Assay (purified): IgG was found to be 1380 ng/µL and the Enzyme Activity Endpoint Assay (purified): scIgG worked out at 15 ng/µL.

Consider B2, for which the Enzyme Activity Endpoint Assay (purified): Fab′2 stood at 401 ng/µL, the Enzyme Activity Endpoint Assay (purified): Fc came out at 0 ng/µL, the Enzyme Activity Endpoint Assay (purified): IgG was 1170 ng/µL and the Enzyme Activity Endpoint Assay (purified): scIgG is 11 ng/µL.

B3 displayed an Enzyme Activity Endpoint Assay (purified): Fab′2 of 986 ng/µL, an Enzyme Activity Endpoint Assay (purified): Fc of 533 ng/µL, an Enzyme Activity Endpoint Assay (purified): IgG of 0 ng/µL and an Enzyme Activity Endpoint Assay (purified): scIgG of 0 ng/µL.

Regarding B4, the Enzyme Activity Endpoint Assay (purified): Fab′2 turned out to be 737 ng/µL, the Enzyme Activity Endpoint Assay (purified): Fc was 406 ng/µL, the Enzyme Activity Endpoint Assay (purified): IgG is 0 ng/µL and the Enzyme Activity Endpoint Assay (purified): scIgG was determined as 0 ng/µL.

The protein B5 displayed an Enzyme Activity Endpoint Assay (purified): Fab′2 of 788 ng/µL, an Enzyme Activity Endpoint Assay (purified): Fc of 450 ng/µL, an Enzyme Activity Endpoint Assay (purified): IgG of 0 ng/µL and an Enzyme Activity Endpoint Assay (purified): scIgG of 0 ng/µL.

For the protein B6, the Enzyme Activity Endpoint Assay (purified): Fab′2 turned out to be 542 ng/µL, the Enzyme Activity Endpoint Assay (purified): Fc is 425 ng/µL, the Enzyme Activity Endpoint Assay (purified): IgG is 161 ng/µL and the Enzyme Activity Endpoint Assay (purified): scIgG stood at 461 ng/µL.

With B7, the Enzyme Activity Endpoint Assay (purified): Fab′2 turned out to be 779 ng/µL, the Enzyme Activity Endpoint Assay (purified): Fc came out at 470 ng/µL, the Enzyme Activity Endpoint Assay (purified): IgG stood at 0 ng/µL and the Enzyme Activity Endpoint Assay (purified): scIgG amounted to 0 ng/µL.

As for B8, the Enzyme Activity Endpoint Assay (purified): Fab′2 turned out to be 97 ng/µL, the Enzyme Activity Endpoint Assay (purified): Fc is 294 ng/µL, the Enzyme Activity Endpoint Assay (purified): IgG came out at 244 ng/µL and the Enzyme Activity Endpoint Assay (purified): scIgG came out at 864 ng/µL.

Consider B9, for which the Enzyme Activity Endpoint Assay (purified): Fab′2 is 563 ng/µL, the Enzyme Activity Endpoint Assay (purified): Fc was 0 ng/µL, the Enzyme Activity Endpoint Assay (purified): IgG was determined as 1070 ng/µL and the Enzyme Activity Endpoint Assay (purified): scIgG stood at 14 ng/µL.

B10 returned an Enzyme Activity Endpoint Assay (purified): Fab′2 of 409 ng/µL, an Enzyme Activity Endpoint Assay (purified): Fc of 118 ng/µL, an Enzyme Activity Endpoint Assay (purified): IgG of 506 ng/µL and an Enzyme Activity Endpoint Assay (purified): scIgG of 217 ng/µL.

The protein B11 had an Enzyme Activity Endpoint Assay (purified): Fab′2 of 783 ng/µL, an Enzyme Activity Endpoint Assay (purified): Fc of 471 ng/µL, an Enzyme Activity Endpoint Assay (purified): IgG of 0 ng/µL and an Enzyme Activity Endpoint Assay (purified): scIgG of 0 ng/µL.

On to B12, for which the Enzyme Activity Endpoint Assay (purified): Fab′2 stood at 35 ng/µL, the Enzyme Activity Endpoint Assay (purified): Fc was determined as 100 ng/µL, the Enzyme Activity Endpoint Assay (purified): IgG was 26 ng/µL and the Enzyme Activity Endpoint Assay (purified): scIgG was 34 ng/µL.

B13 displayed an Enzyme Activity Endpoint Assay (purified): Fab′2 of 823 ng/µL, an Enzyme Activity Endpoint Assay (purified): Fc of 423 ng/µL, an Enzyme Activity Endpoint Assay (purified): IgG of 0 ng/µL and an Enzyme Activity Endpoint Assay (purified): scIgG of 0 ng/µL.

As for B14, the Enzyme Activity Endpoint Assay (purified): Fab′2 turned out to be 897 ng/µL, the Enzyme Activity Endpoint Assay (purified): Fc was 132 ng/µL, the Enzyme Activity Endpoint Assay (purified): IgG worked out at 66 ng/µL and the Enzyme Activity Endpoint Assay (purified): scIgG stood at 0 ng/µL.
